From patent US20240043547A1 (NUMAB THERAPEUTICS, published 2024)
Where two headings read alike, the source gives them in different places.

T1: human IL-31 (human, UniProt Q6EBC2 24-164, limits assumed)
T1 construct: also called hIL-31; recombinant human IL-31
T1 sequence (looked up): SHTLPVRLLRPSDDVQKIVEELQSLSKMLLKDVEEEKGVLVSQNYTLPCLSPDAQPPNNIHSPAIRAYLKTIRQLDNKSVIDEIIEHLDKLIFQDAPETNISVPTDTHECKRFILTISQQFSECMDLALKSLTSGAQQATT

T2: human IL-31-His (human, UniProt Q6EBC2 24-164)
T2 construct: form captured via anti-His tag antibody in the SPR of the scFvs (sections 1.8 and 2.4); also called hIL-31; not shown: His tag
T2 sequence (looked up): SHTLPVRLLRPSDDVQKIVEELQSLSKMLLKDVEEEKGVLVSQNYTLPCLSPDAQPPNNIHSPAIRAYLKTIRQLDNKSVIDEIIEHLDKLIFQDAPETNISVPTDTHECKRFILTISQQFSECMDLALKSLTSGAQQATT


What was measured:
human IL-31 [1] = target: T1, human IL-31; experiment: competitive ELISA: IL-31RA coated, biotinylated IL-31 preincubated with the antibody, bound IL-31 detected with streptavidin-HRP; blocked interaction IL-31/IL-31RA
human IL-31 [2] = target: T1, human IL-31; experiment: cell-based or functional assay
human IL-31 [3] = target: T1, human IL-31; experiment: competitive ELISA: IL-31RA coated, biotinylated IL-31 preincubated with the antibody, bound IL-31 detected with streptavidin-HRP; blocked interaction IL-31/IL-31RA; remark: listed apart in the source
human IL-31 [4] = target: T1, human IL-31; experiment: cell-based or functional assay; remark: listed apart in the source
human IL-31 [5] = target: T1, human IL-31; experiment: cell-based or functional assay; remark: listed apart in the source
human IL-31 [6] = target: T1, human IL-31; experiment: cell-based or functional assay; remark: listed apart in the source
human IL-31 [7] = target: T1, human IL-31; experiment: cell-based or functional assay; remark: listed apart in the source
human IL-31 [8] = target: T1, human IL-31; experiment: competitive ELISA: IL-31RA coated, biotinylated IL-31 preincubated with the antibody, bound IL-31 detected with streptavidin-HRP; blocked interaction IL-31/IL-31RA; remark: listed apart in the source
human IL-31 [9] = target: T1, human IL-31; experiment: cell-based or functional assay; remark: listed apart in the source
cynomolgus IL-31-His [10] = target: T3, cynomolgus IL-31-His (cynomolgus monkey (Macaca fascicularis)); experiment: SPR (Biacore T200), cynomolgus IL-31-His captured via anti-His antibody, scFv as analyte
T3 construct: extracellular domain; also called cynomolgus monkey IL-31; cyno IL-31
Description: (§1) After each analyte injection cycle the sensor chip was regenerated and new antigen was captured. The scFvs were measured using a dose response multi-cycle kinetic assay in a high-throughput mode with two concentrations (30 and 10 nM) diluted in running buffer. Obtained sensorgrams were fitted using a 1:1 binding model.

human IL-31-His [11] = target: T2, human IL-31-His; experiment: SPR (Biacore T200), human IL-31-His captured via anti-His antibody, scFv as analyte
Description: as §1
(§2) The scFvs were measured using a dose response multi-cycle kinetic assay in a high-throughput mode with two concentrations (30 and 10 nM) diluted in running buffer. Obtained sensorgrams were fitted using a 1:1 binding model.

human IL-31 [12] = target: T1, human IL-31; experiment: competitive ELISA: IL-31RA coated, biotinylated IL-31 preincubated with scFv
Text: For this purpose, IL-31RA was coated on the ELISA plate.
Potency of the two humanized scFvs was further determined using a competitive ELISA.

human IL-31 [13] = target: T1, human IL-31; experiment: cell-based or functional assay; remark: listed apart in the source
human IL-31-His [14] = target: T2, human IL-31-His; experiment: SPR (Biacore T200), human IL-31-His captured via anti-His antibody, scFv as analyte; remark: listed apart in the source
Description: as §1

human IL-31 [15] = target: T1, human IL-31; experiment: cell-based or functional assay; remark: listed apart in the source
cynomolgus IL-31-His [16] = target: T3, cynomolgus IL-31-His; experiment: SPR (Biacore T200), cynomolgus IL-31-His captured via anti-His antibody, scFv as analyte; remark: listed apart in the source
Description: as §1, §2

Row | Binder | Kd (human IL-31-His [11]) [nM] | koff (human IL-31-His [11]) [s⁻¹] | kon (human IL-31-His [11]) [M⁻¹ s⁻¹] | IC50 [ng/ml], neutralization of hIL-31-induced signaling in IL-31RA/OSMR dimerization assay (human IL-31 [13]) [ng/mL] | Kd (cynomolgus IL-31-His [16]) [nM] | koff (cynomolgus IL-31-His [16]) [s⁻¹] | kon (cynomolgus IL-31-His [16]) [M⁻¹ s⁻¹] | further results
1 | BMS-981164 (antibody, V domains shown) VH: QVQLVQSGAEVKKPGASVKVSCKASGYTLTRYWMQWVRQAPGQGLEWMGAIYPGDGDTRYSQKFQGRVTLTADKSTSTAYMELSSLRSEDTAVYYCAFPDGYYAAPYGMDYWGQGTLVTVSS VL: DIQMTQSPSSLSASVGDRVTITCRASGNIHNYLAWYQQKPGKVPKLLIYNAKTLADGVPSRFSGSRSETQYSLTISSLQPEDVATYYCQHFWSTPWTFGQGTKVEIKR |  |  |  |  |  |  |  | IC50 (read off the curve) (human IL-31 [1]): ~10 ng/mL; IC50 (read off the curve) (human IL-31 [2]): ~10 ng/mL; IC50 (read off the curve) (human IL-31 [3]): ~10 ng/mL; IC50 (read off the curve) (human IL-31 [4]): ~7 ng/mL; IC50 (read off the curve) (human IL-31 [5]): ~8 ng/mL; IC50 (read off the curve) (human IL-31 [6]): ~10 ng/mL; IC50 (read off the curve) (human IL-31 [7]): ~10 ng/mL; IC50 (read off the curve) (human IL-31 [8]): ~10 ng/mL; IC50 (read off the curve) (human IL-31 [9]): ~10 ng/mL
2 | PRO1643 (scFv, scFv (VL-linker-VH), full graft of rabbit clone 50-09-D07; also called 50-09-D07-sc03; 50-09-D07-5c03) scFv: AFQLTQSPSSLSASVGDRVTITCQASQSIDSWLAWYQQKPGKPPKLLIYQASKLASGVPSRFSGSGSGTDYTLTISSLQPEDFATYYCQTYYGGGHIGWGFGTGTKVTVLGGGGGSGGGGSGGGGSGGGGSQSQLVESGGGLVQPGGSLRLSCAASGFSFSANYWICWVRQAPGKGLEWIVCIYIGSRADTYYAPWAKGRFTISKDNSKNTVYLQMNSLRAEDTAVYFCARFSSGIYDLDRFFLWGQGTLVTVSS | 1.13 | 0.000653 | 579000 | 8.08 | 1.17 | 0.000587 | 501000 | Kd (cynomolgus IL-31-His [10]): 0.583 nM; koff (cynomolgus IL-31-His [10]): 0.000444 s⁻¹; kon (cynomolgus IL-31-His [10]): 761000 M⁻¹ s⁻¹; IC50 (human IL-31 [12]): 4.58 ng/mL; Kd (human IL-31-His [14]): 0.505 nM; koff (human IL-31-His [14]): 0.000447 s⁻¹; kon (human IL-31-His [14]): 884000 M⁻¹ s⁻¹; IC50 [ng/ml], neutralization of hIL-31-induced signaling in IL-31RA/OSMR dimerization assay (human IL-31 [15]): 11.1 ng/mL
3 | PRO1903 (scFv, scFv (VL-linker-VH); variant of PRO1643 with VL D32E (AHo numbering); also called 50-09-D07-sc07; 50-09-D07-5c07) scFv: AFQLTQSPSSLSASVGDRVTITCQASQSIESWLAWYQQKPGKPPKLLIYQASKLASGVPSRFSGSGSGTDYTLTISSLQPEDFATYYCQTYYGGGHIGWGFGTGTKVTVLGGGGGSGGGGSGGGGSGGGGSQSQLVESGGGLVQPGGSLRLSCAASGFSFSANYWICWVRQAPGKGLEWIVCIYIGSRADTYYAPWAKGRFTISKDNSKNTVYLQMNSLRAEDTAVYFCARFSSGIYDLDRFFLWGQGTLVTVSS | 1.22 | 0.000638 | 524000 |  |  |  |  | 
4 | PRO1902 (scFv, scFv (VL-linker-VH); variant of PRO1643 with VH Y59S (AHo numbering); also called 50-09-D07-sc06; 50-09-D07-5c06) scFv: AFQLTQSPSSLSASVGDRVTITCQASQSIDSWLAWYQQKPGKPPKLLIYQASKLASGVPSRFSGSGSGTDYTLTISSLQPEDFATYYCQTYYGGGHIGWGFGTGTKVTVLGGGGGSGGGGSGGGGSGGGGSQSQLVESGGGLVQPGGSLRLSCAASGFSFSANYWICWVRQAPGKGLEWIVCISIGSRADTYYAPWAKGRFTISKDNSKNTVYLQMNSLRAEDTAVYFCARFSSGIYDLDRFFLWGQGTLVTVSS | 2.89 | 0.00246 | 852000 |  |  |  |  | 

Continued by falling Kd (human IL-31-His [11]), values first:

Row | Kd (human IL-31-His [11]) [nM] | koff (human IL-31-His [11]) [s⁻¹] | kon (human IL-31-His [11]) [M⁻¹ s⁻¹] | IC50 [ng/ml], neutralization of hIL-31-induced signaling in IL-31RA/OSMR dimerization assay (human IL-31 [13]) [ng/mL] | Kd (cynomolgus IL-31-His [16]) [nM] | koff (cynomolgus IL-31-His [16]) [s⁻¹] | kon (cynomolgus IL-31-His [16]) [M⁻¹ s⁻¹] | Binder | further results
5 | 0.956 | 0.000565 | 591000 |  |  |  |  | PRO1901 (scFv, scFv (VL-linker-VH); variant of PRO1643 with VH L12S, V103T, L144Q (AHo numbering); also called 50-09-D07-sc05) scFv: AFQLTQSPSSLSASVGDRVTITCQASQSIDSWLAWYQQKPGKPPKLLIYQASKLASGVPSRFSGSGSGTDYTLTISSLQPEDFATYYCQTYYGGGHIGWGFGTGTKVTVLGGGGGSGGGGSGGGGSGGGGSQSQLVESGGGSVQPGGSLRLSCAASGFSFSANYWICWVRQAPGKGLEWIVCIYIGSRADTYYAPWAKGRFTISKDNSKNTVYLQMNSLRAEDTATYFCARFSSGIYDLDRFFLWGQGTQVTVSS | 
6 | 0.907 | 0.000599 | 661000 | 8.21 | 1.07 | 0.000594 | 554000 | PRO1900 (scFv, scFv (VL-linker-VH); variant of PRO1643 with VH L12R, V103T, L144Q (AHo numbering); also called 50-09-D07-sc04; 50-09-D07-5c04) scFv: AFQLTQSPSSLSASVGDRVTITCQASQSIDSWLAWYQQKPGKPPKLLIYQASKLASGVPSRFSGSGSGTDYTLTISSLQPEDFATYYCQTYYGGGHIGWGFGTGTKVTVLGGGGGSGGGGSGGGGSGGGGSQSQLVESGGGRVQPGGSLRLSCAASGFSFSANYWICWVRQAPGKGLEWIVCIYIGSRADTYYAPWAKGRFTISKDNSKNTVYLQMNSLRAEDTATYFCARFSSGIYDLDRFFLWGQGTQVTVSS | 
